The text below walks through data of US7799901B2, “Modulators of the function of FAS receptors and other proteins” (Yeda Research and Development Co. Ltd., priority 1995, dated 2010).

Series [1] deals with yeasts. Briefly: Cytotoxic effect on transfected yeasts (yield of colonies). It counts as cell-based, yeast. The following applies: decrease in the yield of colonies; activation domain vector. The text has this: To find out if MACHα1 can bind to MORT1, as does MACHβ1, the interaction of the proteins within transfected yeasts was first examined. […] This effect was manifested in a marked decrease in the yield of colonies in yeasts that expressed the protein in the activation domain (AD) vector (whose expression level is higher than that of the DNA binding domain (DBD) vector). On the other hand, […] in which the catalytic cysteine residue, Cys360, was replaced with Ser (MACHα1 (C360S)) was not cytotoxic to either mammalian cells (see below), or yeast. Like MACHβ1, MACHα1 (C360S) bound in tranfected yeast to MORT-1 and also to itself. It also bound to MACHβ1. […] The intensity of the lacZ-product color varied, however, among the yeast colonies; in yeasts tranfected with MACHα1 in both the AD and the DBD vectors no color product was observed, probably because of the cytotoxic effect of the wild-type MACHα1.

Series [2] addresses T1, MORT-1 (Homo sapiens, UniProt Q13158, G32V).
T1 sequence (Q13158 with tags, fused parts or gaps G32V): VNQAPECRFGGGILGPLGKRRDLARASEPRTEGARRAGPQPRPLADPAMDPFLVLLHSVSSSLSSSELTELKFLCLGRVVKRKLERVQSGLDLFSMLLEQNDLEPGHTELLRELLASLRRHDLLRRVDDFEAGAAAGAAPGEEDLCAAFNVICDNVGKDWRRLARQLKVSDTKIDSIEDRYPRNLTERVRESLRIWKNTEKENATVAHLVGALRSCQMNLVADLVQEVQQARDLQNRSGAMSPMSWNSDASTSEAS
Briefly: Two-hybrid β-galactosidase expression filter assay in SFY526 yeast, DNA-binding domain hybrid MORT-1. The following applies: substance as activation domain hybrid. More on the design: the full-length MORT-1 cDNA was used (MORT 1); expressed in transfected cells; host or cells: SFY526 yeast. The source says:
To isolate proteins interacting with the intracellular domain of the FAS-R, the yeast two-hybrid system was used (Fields and Song, 1989). […] In this system, the genes for the candidate interacting proteins are cloned into separate expression vectors. In one expression vector, the sequence of the one candidate protein is cloned in phase with the sequence of the GAL4 DNA-binding domain to generate a hybrid protein with the GAL4 DNA-binding-domain, and in the other vector, the sequence of the second candidate protein is cloned in phase with the sequence of the GAL4 activation domain to generate a hybrid protein with the GAL4-activation domain. The two hybrid vectors are then co-transformed into a yeast host strain having a lacZ or HIS3 reporter gene under the control of upstream GAL4 binding sites. Only those transformed host cells (cotransformants) in which the two hybrid proteins are expressed and are capable of interacting with each other, will be capable of expressing the reporter gene. […]
The yeast two-hybrid test was further applied to evaluate the specificity of binding of MACH to MORT-1, in particular, to define the region in MORT-1 to which MACH binds, as well as to determine which of the MACH ORFs interacts with MORT-1, the procedures being as set forth herein above in Examples 1 and 2. Briefly, various MORT-1 and MACH constructs were prepared for testing the interaction of the proteins encoded by the Gal4 DNA-binding domain and activation domain constructs within transfected SFY526 yeast cells as assessed by the β-galactosidase expression filter assay. […] In the assay, the development of color was determined, where the greater the color development, the greater the interaction between the constructs encoded by the DNA-binding domain and activation domain; Color development was depicted by symbols, where “+++” and “+” indicate the development of a strong color within 30 and 90 min. of the assay, respectively, and “−−−” indicates the lack of development of color within 24 hrs. of the assay. […]

With “MACHα1: MACH isoform, cDNA SEQ ID NO: 14, amino acid SEQ ID NO: 7; contains CED3/ICE homology region”, the “cytotoxic effect on yeasts” value in series [1] was “significant cytotoxic effect”.

B1: MORT-1: Mediator of Receptor-induced Toxicity; protein binding the intracellular domain of FAS-R, SEQ ID NO:2 (protein)
chain: VNQAPECRFGGGILGPLGKRRDLARASEPRTEGARRAGPQPRPLADPAMDPFLVLLHSVSSSLSSSELTELKFLCLGRVVKRKLERVQSGLDLFSMLLEQNDLEPGHTELLRELLASLRRHDLLRRVDDFEAGAAAGAAPGEEDLCAAFNVICDNVGKDWRRLARQLKVSDTKIDSIEDRYPRNLTERVRESLRIWKNTEKENATVAHLVGALRSCQMNLVADLVQEVQQARDLQNRSGAMSPMSWNSDASTSEAS
Take B1: the “development of color (interaction with DNA-binding domain hybrid)” value in series [2] is “+++ (“+++” and “+” indicate the development of a strong color within 30 and 90 min. of the assay, respectively)”.

B2: MACHβ1: MACH isoform, cDNA SEQ ID NO: 4, amino acid SEQ ID NO: 5; lacks the CED3/ICE homology region (protein)
chain: MDFSRNLYDIGEQLDSEDLASLKFLSLDYIPQRKQEPIKDALMLFQRLQEKRMLEESNLSFLKELLFRINRLDLLITYLNTRKEEMERELQTPGRAQISAYRVMLYQISEEVSRSELRSFKFLLQEEISKCKLDDDMNLLDIFIEMEKRVILGEGKLDILKRVCAQINKSLLKIINDYEEFSKERSSSLEGSPDEFSNDFGQSLPNEKQTSGILSDHQQSQFCKSTGESAQTSQH
Turning to B2, in series [2], the “development of color (interaction with DNA-binding domain hybrid)” value is “+++ (“+++” and “+” indicate the development of a strong color within 30 and 90 min. of the assay, respectively)”.

B3: MACHα1 (C360S): MACHα1 mutant in which the catalytic cysteine Cys360 is replaced by Ser (protein)
chain: MDFSRNLYDIGEQLDSEDLASLKFLSLDYIPQRKQEPIKDALMLFQRLQEKRMLEESNLSFLKELLFRINRLDLLITYLNTRKEEMERELQTPGRAQISAYRVMLYQISEEVSRSELRSFKFLLQEEISKCKLDDDMNLLDIFIEMEKRVILGEGKLDILKRVCAQINKSLLKIINDYEEFSKERSSSLEGSPDEFSNGEELCGVMTISDSPREQDSESQTLDKVYQMKSKPRGYCLIINNHNFAKAREKVPKLHSIRDRNGTHLDAGALTTTFEELHFEIKPHDDCTVEQIYEILKIYQLMDHSNMDCFICCILSHGDKGIIYGTDGQEAPIYELTSQFTGLKCPSLAGKPKVFFIQASQGDNYQKGIPVETDSEEQPYLEMDLSSPQTRYIPDEADFLLGMATVNNCVSYRNPAEGTWYIQSLCQSLRERCPRGDDILTILTEVNYEVSNKDDKKNMGKQMPQPTFTLRKKLVFPSD
For the molecule B3, the “cytotoxic effect on yeasts” value in series [1] is “not cytotoxic”.
